Results published in patent US20160177324A1, “NOVEL PROTEIN AND GENE RELATED TO FLAVONOID O-METHYLTRANSFERASE (FOMT) AND THEIR USES THEREFORE” (INSTITUTE OF BOTANY, THE CHINESE ACADEMY OF SCIENCES, priority 2013, published 2016).

System: Nicotiana tabacum cv.Nc89
Experiment: Flavonoid O-methyltransferase activity in transgenic tobacco
Type: in vivo
Excerpt: The full length genes were introduced with a BamHl site and an XhoI site on 5′- and 3′-end by PCR with primers SEQ No. 5 & 6. The double digested fragment of interest and eukaryotic expression vector pBI121 with BamHl site and an XhoI were ligated. Then the appropriate constructs were introduced into Agrobacterium strain EHA105 by electroporation.
Leaf of Nicotiana tabacum cv.Nc89 plant (Donated by Professor Silan Dai, Beijing Forestry University) was disinfected by 75% ethanol for 30 s, followed by 2% sodium hypochlorite for 3 minutes, and then washed with sterile water for three times. The leaf was cut into squares (25 mm^2) A single colony of Agrobacterium strain EHA105 with pBI121-FOMT construct was used to inoculate with 2 mL of YEB medium (per liter: 5 g of beef extract, 1 g of yeast extract, 5 g of sucrose, and 0.5 g of MgSO4.7H2O), supplemented with 50 mg mL^−1 kanamycin and 25 mg mL^−1 Rifampicin. The culture was incubated at 28° C. until OD600 0.6-0.8, and the bacteria were pelleted by centrifugation at 5000 rpm for 5 minutes. The cells were washed by MS liquid medium and resuspended pellets with appropriate volume of MS liquid. The tobacco leaf squares were dipped into the bacteria solution for 8 minutes and cultivated on MS media containing 2.0 mg L^−1 6-benzylaminopurine (6-BA), 0.2 mg L^−1 1-naphthylacetic acid (NAA), and 500 mg L^−1 ceflomine. The explants were transferred to fresh selected medium after two weeks. When the regenerating plantlets grow to 2 cm, move them to MS media containing 0.2 mg L^−1 NAA to induce root. After four weeks, the transgenic tobacco plantlets were transferred to pots and kept in the greenhouse till flowering. The positive transgenic lines were selected by PCR, and transgenic plantlets with empty plasmid were used as control. The anthocyanins in transgenic petals were detected with an HPLC system.
Appropriate amount of sample (petal, fruits) was powdered with mortars and pestles and extracted for the first time with 2 mL 2% (v/v) formic acid methanol solution shaken in a QL-861 vortex (Kylinbell Lab Instruments, Jiangsu, China), sonicated in KQ-500DE ultrasonic cleaner (Ultrasonic instruments, Jiangsu Kunshan, China) at 20° C. for 20 min, centrifuged in SIGMA 3K30 (SIGMA centrifugers, Germany) (12000 rpm, 10 min), and the supernatant was collected. Additional 2 mL and 1 mL extraction solution was supplemented to the residue, and repeated aforesaid operation for the second and third times. All extract was pooled and filtrated through 0.22 μm reinforced nylon membrane filters (Shanghai ANPEL, Shanghai, China) before the HPLC-DAD and HPLC-ESI-MS^n analyses. Three replicates were performed for each sample. […]
HPLC-ESI-MS^n analysis was carried with an Agilent-1100 HPLC system equipped with a UV detector coupled to a LC-MSD Trap VL ion-trap mass spectrometer via an ESI source (Agilent Technologies, Palo Alto, Calif.). […] The MS conditions were listed as follow: negative-ion (NI) mode; capillary voltage of 3.5 kV; a nebulization pressure of 241.3 kPa; and a gas (N2) temperature of 350° C. with flow rate of 6.0 L min^−1 Capillary offset voltage was 77.2 V. MS spectra were recorded over the range from m/z 50-1000.

B1: PsFOMT: flavonoid O-methyltransferase from tree peony Paeonia suffruticosa cv. 'Gunpohden', SEQ ID NO: 3; recombinant MBP fusion protein (protein, listed as Paeonia suffruticosa)
chain: MAESDRKGILKSEALLKYILETSVYPREHEQLKQLRQATVDKYKYWSVMNVPADEGQFLSMLLKIMNAKKTIEVGVFTGYSLLTAALALPTDAKITAIDPDGEAYETGLPFIKKAGVEHKINYIQADAMSVLDDLVTNGKEEGSFDFAFVDADKENYAKYHEPLMKLVKIGGIIGYDNTLWFGSVALSDGDEMKEFQEKGRRIFREFNTFLAADPRIELAHISIGDGLALCRRLY
modifications: MBP fusion
notes: recombinant MBP fusion protein
For B1, the “flower color compared with control lines” value (transgenic tobacco flowers) was “tend to purplish”, the “methyltransferase function in tobacco petal (new anthocyanin Pn3R detected)” value (transgenic tobacco petals vs empty vector) was “performed as a methyltransferase” and the “content of peonidin 3-O-rutinoside (Pn3R) in total anthocyanin (TA)” value (transgenic tobacco petals, 35S:: lines) was “much higher”.
